These results are taken from US20160297857A1.

In general, Ki refers to a measure of affinity in units of concentration, obtained from inhibition or displacement. Read a low Ki as a stronger hold on the target.

The target of the experiment is PA1b-binding site. Briefly: ligand binding assay with 125I-labeled toxin.
EFCSSVGSFCSPFNTNPCGYLGNCRCVPYYLYGGTCENPFG [EG41] had a Ki of 72.8 nM.
In turn, ASCNGVCSPFEMPPCGTSACRCIPVGLVIGYCRNPSG [PA1b polypeptide of Pisum sativum] came in with a Ki of 17 nM.
Consider AKCGEACDTQFNFCNAGDGCRCFITDAYLTLPGFCAQLST [AS40], for which the Ki turned out to be 10.3 nM.
With DECWGPCSVLQTPPCPLSKCYCIPLFLVVGYCSHASS [DS37], the Ki was determined as 694 nM.
For the molecule ASCPNVGAVCSPFETKPCGNVKDCRCLPWGLFFGTCINPTG [AG41], the Ki was found to be 1.3 nM.
Molecule ADCSGICSPFEMPPCRSSDCRCIPIALIGGFCINPIS [AS37] displayed an inhibition constant Ki of 15 nM.
